{
  "source": "patent US20200392252A1",
  "about": "(ALLOGENE THERAPEUTICS, published 2020)",
  "binders": {"B1": {"name": "2299.5D4.C8 (antibody, V domains shown)", "VH": "QIQLVQSGPELKKPGETVKISCKASGYTFTDYSIHWVKQAPGEGLKWMAWINTETGAPTFADDFKGRLALSLETSANTAYLQINNLKHEDTATYFCAKEGGFYFYAMDYWGQGTSVTVSS", "VL": "DIVMSQSPSSLAVSAGEKVTMSCKSSQSLLSSRTRKNYLAWYQQKPGQAPKLLISWASTRESGVPDRFTGSGSGTEFTLTISSVQAEDLAVYYCKQSYNLRTFGGGTKLEIK"}, "B2": {"name": "2299.6B3.B8.B6 (antibody, V domains shown)", "VH": "QIQLVQSGPELKKPGETVKISCKASGYAFTDYSIHWMKQAPGEGLQWMGWINTETAKPAFGDDFKGRFAFSLETSANTAHLHINNLRTEDTATYFCAKEGGFYFYAMDYWGQGTSVTVSS", "VL": "B1 VL with S22N, A49S, S55Y, E61D, E76D, L100F"}, "B3": {"name": "2299.2G3.C6 (antibody, V domains shown)", "VH": "B1 VH", "VL": "B1 VL with L11R, L52M, S62F, S73F, E76D, A86G, L100F"}, "B4": {"name": "2299.6G5.C7 (antibody, V domains shown)", "VH": "B1 VH with E43K, A49G, L68F, L70F, N77S, Y80F, H88N, V116L", "VL": "B1 VL with A15T, E76D, Y98F"}, "B5": {"name": "2299.7F11.B4 (antibody, V domains shown)", "VH": "B1 VH with E43K, A57D, F60Y, A61E, L68F, L70F, N77S, H88N, A97S", "VL": "B1 VL with A49S, S55K, E76D"}},
  "target": "T1, FokI catalytic domain protein including a C-terminal 6xHis tag and GSGS linker (Flavobacterium okeanokoites, UniProt P14870 426-579)",
  "T1 construct": "also called Fok-1; Fok1",
  "T1 sequence": "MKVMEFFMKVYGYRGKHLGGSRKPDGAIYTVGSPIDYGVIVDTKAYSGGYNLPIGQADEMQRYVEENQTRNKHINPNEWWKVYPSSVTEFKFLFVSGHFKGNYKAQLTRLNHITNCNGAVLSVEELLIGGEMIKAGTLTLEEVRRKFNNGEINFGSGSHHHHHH",
  "experiment": "Biacore SPR, antibody as ligand, FokI as analyte",
  "note": "Changes are numbered by the printed parent chain.",
  "data": [
    {"binder": "B1", "values": [
      {"measurement": "Kd", "value": "< 7.63", "unit": "nM"},
      {"measurement": "koff", "value": "< 8.55e-05", "unit": "s⁻¹"},
      {"measurement": "kon", "value": 11200, "unit": "M⁻¹ s⁻¹"},
      {"measurement": "t1/2", "value": "> 2.25", "unit": "h"}
    ]},
    {"binder": "B2", "values": [
      {"measurement": "Kd", "value": "< 8.66", "unit": "nM"},
      {"measurement": "koff", "value": "< 8.55e-05", "unit": "s⁻¹"},
      {"measurement": "kon", "value": 9870, "unit": "M⁻¹ s⁻¹"},
      {"measurement": "t1/2", "value": "> 2.25", "unit": "h"}
    ]},
    {"binder": "B3", "values": [
      {"measurement": "Kd", "value": "< 4.83", "unit": "nM"},
      {"measurement": "koff", "value": "< 8.55e-05", "unit": "s⁻¹"},
      {"measurement": "kon", "value": 17700, "unit": "M⁻¹ s⁻¹"},
      {"measurement": "t1/2", "value": "> 2.25", "unit": "h"}
    ]},
    {"binder": "B4", "values": [
      {"measurement": "Kd", "value": "< 16.2", "unit": "nM"},
      {"measurement": "koff", "value": "< 8.55e-05", "unit": "s⁻¹"},
      {"measurement": "kon", "value": 5270, "unit": "M⁻¹ s⁻¹"},
      {"measurement": "t1/2", "value": "> 2.25", "unit": "h"}
    ]},
    {"binder": "B5", "values": [
      {"measurement": "Kd", "value": "< 1.13", "unit": "nM"},
      {"measurement": "koff", "value": "< 8.55e-05", "unit": "s⁻¹"},
      {"measurement": "kon", "value": 75700, "unit": "M⁻¹ s⁻¹"},
      {"measurement": "t1/2", "value": "> 2.25", "unit": "h"}
    ]}
  ]
}
